From paper PMC6120983, “Chimeric Proteins Containing MAP-1 and Functional Domains of C4b-Binding Protein Reveal Strong Complement Inhibitory Capacities” (Frontiers in Immunology, 2018) come the findings set out here.

To fix the notation:
B1: recombinant MAP-1 (natural protein, human, UniProt P48740-3 20-380, looked up)
chain: HTVELNNMFGQIQSPGYPDSYPSDSEVTWNITVPDGFRIKLYFMHFNLESSYLCEYDYVKVETEDQVLATFCGRETTDTEQTPGQEVVLSPGSFMSITFRSDFSNEERFTGFDAHYMAVDVDECKEREDEELSCDHYCHNYIGGYYCSCRFGYILHTDNRTCRVECSDNLFTQRTGVITSPDFPNPYPKSSECLYTIELEEGFMVNLQFEDIFDIEDHPEVPCPYDYIKIKVGPKVLGPFCGEKAPEPISTQSHSVLILFHSDNSGENRGWRLSYRAAGNECPELQPPVHGKIEPSQAKYFFKDQVLVSCDTGYKVLKDNVEMDTFQIECLKDGTWSNKIPTCKKNEIDLESELKSEQVTE
B2: C4BP^1−5:MAP-1 (other)
chain: NCGPPPTLSFAAPMDITLTETRFKTGTTLKYTCLPGYVRSHSTQTLTCNSDGEWVYNTFCIYKRCRHPGELRNGQVEIKTDLSFGSQIEFSCSEGFFLIGSTTSRCEVQDRGVGWSHPLPQCEIVKCKPPPDIRNGRHSGEENFYAYGFSVTYSCDPRFSLLGHASISCTVENETIGVWRPSPPTCEKITCRKPDVSHGEMVSGFGPIYNYKDTIVFKCQKGFVLRGSSVIHCDADSKWNPSPPACEPNSCINLPDIPHASWETYPRPTKEDVYVVGTVLRYRCHPGYKPTTDEPTTVICQKNLRWTPYQGCEAHTVELNNMFGQIQSPGYPDSYPSDSEVTWNITVPDGFRIKLYFMHFNLESSYLCEYDYVKVETEDQVLATFCGRETTDTEQTPGQEVVLSPGSFMSITFRSDFSNEERFTGFDAHYMAVDVDECKEREDEELSCDHYCHNYIGGYYCSCRFGYILHTDNRTCRVECSDNLFTQRTGVITSPDFPNPYPKSSECLYTIELEEGFMVNLQFEDIFDIEDHPEVPCPYDYIKIKVGPKVLGPFCGEKAPEPISTQSHSVLILFHSDNSGENRGWRLSYRAAGNECPELQPPVHGKIEPSQAKYFFKDQVLVSCDTGYKVLKDNVEMDTFQIECLKDGTWSNKIPTCKKNEIDLESELKSEQVTE
B3: C4BP^1−5:MAP-1 (other)
chain: B2 chain
modifications: (Gly4Ser)3 linker between C4BP CCP1-5 and MAP-1 left out of the pieces; CCP1-5 limits from Sushi 1-5 features; MAP-1 (MAp44, NM_001031849.2) is the 380-aa MASP1 isoform, signal peptide 1-19 removed …

Test [1] has as its target T1, recombinant CL-11 (UniProt Q9BWP8 26-271).
T1 construct: collectin-11 (CL-11, CL-K1); Held on mannan-coated wells in the ELISA; also called rCL-11; collectin-11; source: produced in house
Put plainly: ELISA; rMBL or rCL-11 (2 μg/ml) held on mannan-coated wells; serial dilutions of the proteins from 13.5 nM in TBS/Tween/Ca^2+ (5 mM CaCl2), 2 h; detected with biotinylated anti-MASP-1/-3/MAP-1 mAb 8B3; Kd = concentration at half of the maximum binding, fit specific binding with Hill slope, Bmax shared. (In general: ELISA stands for enzyme-linked immunosorbent assay.)

Test [2] deals with T2, recombinant MBL (UniProt P11226 21-248). The description is as above.
T2 sequence (P11226 21-248): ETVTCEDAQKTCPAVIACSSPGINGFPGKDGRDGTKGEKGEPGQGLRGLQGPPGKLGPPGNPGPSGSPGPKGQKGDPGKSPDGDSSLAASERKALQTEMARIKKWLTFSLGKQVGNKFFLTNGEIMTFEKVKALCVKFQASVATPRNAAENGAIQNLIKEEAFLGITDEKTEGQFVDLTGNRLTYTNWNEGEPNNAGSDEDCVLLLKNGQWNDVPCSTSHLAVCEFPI
Test [3] concerns the target T2, recombinant MBL.
For test [4], the target named is MAP-1:C4BP^1−5 (human) (UniProt P48740). Put plainly: SEC; 50 μg on Superdex 200 HR 10/30, 0.5 ml/min, TBS/Ca^2+ (5 mM CaCl2); fractions checked by sandwich ELISA (anti-C4BP capture, anti-MAP-1 detection). A general note: SEC sorts molecules by how far they enter the pores of the column.
For test [5], the target named is T2, recombinant MBL. Put plainly: cell-based or functional assay.
Test [6] deals with B2. Description: SEC; 50 μg on Superdex 200 HR 10/30, 0.5 ml/min, TBS/Ca^2+ (5 mM CaCl2); fractions checked by sandwich ELISA (anti-C4BP capture, anti-MAP-1 detection). The conditions noted are these: both partners purified.

Read-outs that look alike come from different tables or passages of the source.

T1 sequence (Q9BWP8 26-271): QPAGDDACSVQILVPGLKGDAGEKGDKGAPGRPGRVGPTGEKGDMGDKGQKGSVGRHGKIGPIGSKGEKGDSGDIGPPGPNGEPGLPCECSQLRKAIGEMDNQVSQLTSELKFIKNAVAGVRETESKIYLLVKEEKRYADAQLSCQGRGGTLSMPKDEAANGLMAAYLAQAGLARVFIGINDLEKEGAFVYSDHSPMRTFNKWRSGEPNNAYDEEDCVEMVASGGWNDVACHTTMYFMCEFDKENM

A word on the Kd: it is the equilibrium constant for the complex coming apart. The stoichiometry N is the number of molecules, sites or subunits per partner or assembly. Regarding “MAP-1:C4BP^1−5 (from UniProt P48740-3 20-380)”, the Kd in test [1] came to 1.97 nM. For the same molecule, the Kd in test [2] was determined as 0.35 nM. Besides, in test [3], the IC50 of C3 deposition (ELISA; inhibitor pre-incubated on mannan-bound rMBL, then 2% MBL defect serum) was 0.36 nM; the IC50 of C4 deposition (ELISA; inhibitor pre-incubated on mannan-bound rMBL, then 2% MBL defect serum) amounted to 0.45 nM; the IC50 of TCC deposition (ELISA; inhibitor pre-incubated on mannan-bound rMBL, then 2% MBL defect serum) worked out at 0.17 nM. Besides, the stoichiometry N in test [4] amounted to 2.

For B1, in test [5], the “IC50 of C3 deposition (ELISA; inhibitor pre-incubated on mannan-bound rMBL, then 2% MBL defect serum)” value is 3.35 nM; the “IC50 of C4 deposition (ELISA; inhibitor pre-incubated on mannan-bound rMBL, then 2% MBL defect serum)” value worked out at 0.14 nM; the “IC50 of TCC deposition (ELISA; inhibitor pre-incubated on mannan-bound rMBL, then 2% MBL defect serum)” value is 0.46 nM.

In the case of B2, in test [2] (both partners purified), the Kd turned out to be 0.56 nM. Besides, in test [5], the “IC50 of C3 deposition (ELISA; inhibitor pre-incubated on mannan-bound rMBL, then 2% MBL defect serum)” value turned out to be 7.72 nM; the “IC50 of C4 deposition (ELISA; inhibitor pre-incubated on mannan-bound rMBL, then 2% MBL defect serum)” value worked out at 1.2 nM; the “IC50 of TCC deposition (ELISA; inhibitor pre-incubated on mannan-bound rMBL, then 2% MBL defect serum)” value came out at 0.92 nM.

Take B3: the Kd in test [1] (both partners purified) turned out to be 5.49 nM. Besides, in test [6], the “stoichiometry N” value was determined as 2.
